Experimental data: paper PMC11406360, “The enzymatic oxygen sensor cysteamine dioxygenase binds its protein substrates through their N-termini” (The Journal of Biological Chemistry, 2024)
*1 amine or outer side, *2 acyl side, *3 side chain or, on linkers, in order; H or OH if unused. Where a SMILES comes first, the peptide text is derived from it. Where no end group is shown, it is not given here. [ ]: non-standard residue; d: D form. Cys(O2H) = cysteine sulfinic acid (N-terminal cysteine sulfinylated), O=C([C@H](CS(=O)O[*:3])N[*:1])[*:2]

T1: 2-aminoethanethiol (cysteamine) dioxygenase (ADO), biotinylated, for SPR (human, UniProt Q96SZ5 1-270, biotin (N terminally biotinylated; 0.2 mM biotin added at induction))
T1 construct: 2-aminoethanethiol (cysteamine) dioxygenase (ADO), human, UniProt Q96SZ5, full length; In the chelation experiments the metal was removed and iron put back on the chip (see assays a2, a3); Used also as the ADO of the functional rows, although the enzyme assays used the pET28a-ADO construct (N-terminal His tag); also called WT ADO; native ADO; source: E. coli Rosetta2(DE3), pQE80L-Navi construct, …
T1 sequence (looked up): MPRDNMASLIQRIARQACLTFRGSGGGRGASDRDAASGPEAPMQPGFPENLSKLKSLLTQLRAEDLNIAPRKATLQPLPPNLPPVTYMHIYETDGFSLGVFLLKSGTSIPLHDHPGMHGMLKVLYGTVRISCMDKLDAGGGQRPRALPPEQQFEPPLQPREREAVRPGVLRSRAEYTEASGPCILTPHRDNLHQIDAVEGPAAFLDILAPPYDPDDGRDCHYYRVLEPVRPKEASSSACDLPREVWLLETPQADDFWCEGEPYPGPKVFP

T2: ADO (2-aminoethanethiol dioxygenase), iron-bound wild type (Homo sapiens, UniProt Q96SZ5)
T2 construct: Full-length human ADO (UniProt ID: Q96SZ5) was cloned; made in house; host or cells: Rosetta2(DE3) Escherichia coli
T2 sequence (Q96SZ5 1-270): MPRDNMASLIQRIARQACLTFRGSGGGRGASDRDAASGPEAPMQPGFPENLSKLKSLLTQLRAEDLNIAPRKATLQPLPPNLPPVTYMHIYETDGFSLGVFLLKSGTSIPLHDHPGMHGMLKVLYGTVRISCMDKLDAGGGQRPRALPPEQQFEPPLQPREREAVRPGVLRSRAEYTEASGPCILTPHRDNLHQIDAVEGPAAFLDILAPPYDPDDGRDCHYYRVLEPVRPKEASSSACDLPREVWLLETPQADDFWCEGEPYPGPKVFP

T3: 2-aminoethanethiol (cysteamine) dioxygenase (ADO), biotinylated, for SPR (human, UniProt Q96SZ5 1-270, biotin (N terminally biotinylated; 0.2 mM biotin added at induction))
T3 chain: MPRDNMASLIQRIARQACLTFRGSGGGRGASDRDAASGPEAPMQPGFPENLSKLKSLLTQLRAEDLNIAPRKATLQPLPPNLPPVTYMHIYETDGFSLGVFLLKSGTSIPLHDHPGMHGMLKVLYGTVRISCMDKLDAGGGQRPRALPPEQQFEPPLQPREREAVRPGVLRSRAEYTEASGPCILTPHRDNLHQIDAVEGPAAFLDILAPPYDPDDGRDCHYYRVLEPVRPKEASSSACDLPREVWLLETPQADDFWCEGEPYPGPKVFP


Target: T1, 2-aminoethanethiol (cysteamine) …
Assay: SPR; Biacore T200; biotinylated ADO immobilized on a Biotin CAP chip (∼2500 to 3000 RU), peptide/protein substrates injected; 4 °C; 20 mM Hepes pH 7.5, 500 mM NaCl, 10 mM DTT, 0.1% tween-20; 50 μl/min; multicycle, equilibrium steady state affinity 1:1 binding model
Conditions: both partners purified

Molecule	Kd	binding result
SKGLAALPHSCLER (peptide, UniProt O15539 2-15, looked up, RGS5 residues 2-15 (initiating methionine denoted as 1), Nt-cys to serine; source: synthetic peptide (SPPS, HPLC purified)) [RGS5-C2S peptide]	~40000 nM	–
CAPKVLSDDMKKLK (peptide, UniProt P24001 2-15, looked up, IL32 residues 2-15 (initiating methionine denoted as 1), F3A; source: synthetic peptide (SPPS, HPLC purified)) [IL32-F3A peptide]	2200 ± 72 nM	–
CFPKVASDDMKKLK (peptide, UniProt P24001 2-15, looked up, IL32 residues 2-15 (initiating methionine denoted as 1), L7A; source: synthetic peptide (SPPS, HPLC purified)) [IL32-L7A peptide]	570 ± 12 nM	–
full-length RGS5 (RGS5^FL) (natural protein) CKGLAALPHSCLERAKEIKIKLGILLQKPDSVGDLVIPYNEKPEKPAKTQKTSLDEALQWRDSLDKLLQNNYGLASFKSFLKSEFSEENLEFWIACEDYKKIKSPAKMAEKAKQIYEEFIQTEAPKEVNIDHFTKDITMKNLVEPSLSSFDMAQKRIHALMEKDSLPRFVRSEFYQELIK	3000 ± 58 nM	–
RGS5^FL-C2S (natural protein) SKGLAALPHSCLERAKEIKIKLGILLQKPDSVGDLVIPYNEKPEKPAKTQKTSLDEALQWRDSLDKLLQNNYGLASFKSFLKSEFSEENLEFWIACEDYKKIKSPAKMAEKAKQIYEEFIQTEAPKEVNIDHFTKDITMKNLVEPSLSSFDMAQKRIHALMEKDSLPRFVRSEFYQELIK	63000 ± 610 nM	–
CKALAALPHSCLER (peptide, UniProt O15539 2-15, looked up, RGS5 residues 2-15 (initiating methionine denoted as 1), G4A; source: synthetic peptide (SPPS, HPLC purified)) [RGS5-G4A peptide]	710 ± 15 nM	–
CKKLAALPHSCLER (peptide, UniProt O15539 2-15, looked up, RGS5 residues 2-15 (initiating methionine denoted as 1), G4K; source: synthetic peptide) [RGS5-G4K peptide]	12000 ± 1500 nM	–
CKPLAALPHSCLER (peptide, UniProt O15539 2-15, looked up, source: synthetic peptide) [RGS5-G4P peptide]	–	binds
CFAKVLSDDMKKLK (peptide, UniProt P24001 2-15, looked up, IL32 residues 2-15 (initiating methionine denoted as 1), P4A; source: synthetic peptide (SPPS, HPLC purified)) [IL32-P4A peptide]	150 ± 1.2 nM	–
SFPKVLSDDMKKLK (peptide, UniProt P24001 2-15, looked up, IL32 residues 2-15 (initiating methionine denoted as 1), Nt-cys to serine; source: synthetic peptide (SPPS, HPLC purified)) [IL32-C2S peptide]	~40000 nM	–
CFPAVLSDDMKKLK (peptide, UniProt P24001 2-15, looked up, IL32 residues 2-15 (initiating methionine denoted as 1), K5A; source: synthetic peptide (SPPS, HPLC purified)) [IL32-K5A peptide]	140 ± 2 nM	–
CAGLAALPHSCLER (peptide, UniProt O15539 2-15, looked up, RGS5 residues 2-15 (initiating methionine denoted as 1), K3A; source: synthetic peptide (SPPS, HPLC purified)) [RGS5-K3A peptide]	540 ± 88 nM	–
CDGLAALPHSCLER (peptide, UniProt O15539 2-15, looked up, RGS5 residues 2-15 (initiating methionine denoted as 1), K3D; source: synthetic peptide) [RGS5-K3D peptide]	39000 ± 1200 nM	–
CYGLAALPHSCLER (peptide, UniProt O15539 2-15, looked up, RGS5 residues 2-15 (initiating methionine denoted as 1), K3Y; source: synthetic peptide) [RGS5-K3Y peptide]	–	binds
CWGLAALPHSCLER (peptide, UniProt O15539 2-15, looked up, RGS5 residues 2-15 (initiating methionine denoted as 1), K3W; source: synthetic peptide) [RGS5-K3W peptide]	–	binds
CLGLAALPHSCLER (peptide, UniProt O15539 2-15, looked up, RGS5 residues 2-15 (initiating methionine denoted as 1), K3L; source: synthetic peptide) [RGS5-K3L peptide]	–	binds
CRGLAALPHSCLER (peptide, UniProt O15539 2-15, looked up, RGS5 residues 2-15 (initiating methionine denoted as 1), K3R; source: synthetic peptide) [RGS5-K3R peptide]	–	binds

Target: T2, ADO (2-aminoethanethiol dioxygenase), iron-bound wild type
Assay: SPR binding of peptide/protein substrates to immobilised ADO
Conditions: SPR steady state, 1:1 binding model, biotinylated ADO on Biotin CAP chip, 4 °C, 20 mM Hepes pH 7.5, 500 mM NaCl, 10 mM DTT, 0.1% tween-20; geometric mean (± SD) of minimum three independent measurements
Excerpt: ADO catalyzes the O2-dependent sulfinylation of Nt-cys residues, which reportedly bind to the iron cofactor in a monodentate arrangement through ligation of the thiol group ([14], [15]). To test the importance of Nt-cys modifications and substitutions on ADO association, a SPR assay was established. […] Data collected under steady state conditions is presented in the main text and kinetic constants are provided in the Tables S1–S8 (alongside steady state measurements). All measurements were collected at 4 °C to minimize enzyme activity.
SPR measurements were made using a Biacore T200 (Cytiva) instrument and data were analyzed using the Biacore Insight Evaluation Software (Cytiva; https://www.cytivalifesciences.com/en/us/shop/protein-analysis/spr-label-free-analysis/spr-software-and-extensions/biacore-insight-evaluation-software-p-23528). Biotinylated-ADO was immobilized on a Biotin CAP chip (Cytiva) with a target density of ∼2500 to 3000 RU and peptide/protein substrates were injected over the chip. […] A buffer comprising 20 mM Hepes pH 7.5, 500 mM NaCl, 10 mM DTT, and 0.1% (v/v) tween-20 was used as the running buffer at a flow rate of 50 μl/min.
For metal-chelation experiments, a mixture of 10 mM 1, 10-phenanthroline and 100 mM EDTA (pH 8) was injected onto the chip using 10 × 60 s injections at a 100 μl/min flow rate. […] The instrument and chip were primed into buffer excluding reducing agents before conducting metal chelation and iron reconstitution.

Molecule	Equilibrium dissociation constant KD
Ac-RGS5: Nt-acetylated RGS5 peptide (Ac-CKGLAALPHSCLER; cysteine pairing not given here)	No binding
RGS5-Ox: Nt-sulfinylated RGS5 peptide acquired through preincubation with ADO ([Cys(O2H)]KGLAALPHSCLER)	No binding
K3W: RGS5 third position mutant peptide (CWGLAALPHSCLER)	the most tolerated
K3R: RGS5 third position mutant peptide (CRGLAALPHSCLER)	the most tolerated
RGS5-C2A: RGS5 peptide with Nt-cys to alanine (AKGLAALPHSCLER)	No binding
K3L: RGS5 third position mutant peptide (CLGLAALPHSCLER)	the most tolerated
K3Y: RGS5 third position mutant peptide (CYGLAALPHSCLER)	the most tolerated
RGS5^FL-C2A: full-length RGS5 C2A mutant (protein, left off: His tag, N-terminal, cleaved | SUMO, N-terminal, cleaved, full-length RGS5 C2A mutant) MAKGLAALPHSCLERAKEIKIKLGILLQKPDSVGDLVIPYNEKPEKPAKTQKTSLDEALQWRDSLDKLLQNNYGLASFKSFLKSEFSEENLEFWIACEDYKKIKSPAKMAEKAKQIYEEFIQTEAPKEVNIDHFTKDITMKNLVEPSLSSFDMAQKRIHALMEKDSLPRFVRSEFYQELIK	prevented binding

Same assay, conditions: SPR steady state, 1:1 binding model, biotinylated ADO on Biotin CAP chip, 4 °C, 20 mM Hepes pH 7.5, 500 mM NaCl, 10 mM DTT, 0.1% tween-20; geometric mean (± SD) of minimum three independent measurements; read-out: Equilibrium dissociation constant KD

Molecule	Kd
CC(C)C[C@H](NC(=O)CNC(=O)[C@H](CCCCN)NC(=O)[C@@H](N)CS)C(=O)N[C@@H](C)C(=O)N[C@@H](C)C(=O)N[C@@H](CC(C)C)C(=O)N1CCC[C@H]1C(=O)N[C@@H](Cc1c[nH]cn1)C(=O)N[C@@H](CO)C(=O)N[C@@H](CS)C(=O)N[C@@H](CC(C)C)C(=O)N[C@@H](C)C(=O)N[C@@H](CCCNC(=N)N)C(N)=O [RGS5-E14A] (H-CKGLAALPHSCLAR-NH2)	260 ± 42 nM
SKGLAALPHSCLER-NH2 [RGS5-C2S]	42000 ± 5500 nM
NC(=O)[C@@H]1CCCN1C(=O)[C@H](Cc1ccccc1)NC(=O)[C@@H](N)CS [IL32 tripeptide] (H-Cys-Phe-Pro-NH2; C-terminus assumed)	130 ± 3.7 nM
CC(C)C[C@H](NC(=O)CNC(=O)[C@H](CCCCN)NC(=O)[C@@H](N)CS)C(=O)N[C@@H](C)C(=O)N[C@@H](C)C(=O)N[C@@H](CC(C)C)C(=O)N[C@@H](C)C(=O)N[C@@H](Cc1c[nH]cn1)C(=O)N[C@@H](CO)C(=O)N[C@@H](CS)C(=O)N[C@@H](CC(C)C)C(=O)N[C@@H](CCC(=O)O)C(=O)N[C@@H](CCCNC(=N)N)C(N)=O [RGS5-P9A] (H-CKGLAALAHSCLER-NH2)	250 ± 23 nM
CC(C)C[C@H](NC(=O)CNC(=O)[C@H](CCCCN)NC(=O)[C@@H](N)CS)C(=O)N[C@@H](C)C(=O)N[C@@H](C)C(=O)N[C@@H](CC(C)C)C(=O)N1CCC[C@H]1C(=O)N[C@@H](Cc1c[nH]cn1)C(=O)N[C@@H](CO)C(=O)N[C@@H](CS)C(=O)N[C@@H](C)C(=O)N[C@@H](CCC(=O)O)C(=O)N[C@@H](CCCNC(=N)N)C(N)=O [RGS5-L13A] (H-CKGLAALPHSCAER-NH2)	260 ± 32 nM

Same assay, conditions: SPR, 4 °C; relative to native IL32 peptide

Molecule	Fold improvement in binding affinity (stronger) relative to native 14-residue peptide
H-CFAKVLSDDMKKLK-NH2 (C-terminus assumed) [IL32-P4A]	approximately 2 fold
H-CFPAVLSDDMKKLK-NH2 (C-terminus assumed) [IL32-K5A]	approximately 2 fold
NC(=O)[C@@H]1CCCN1C(=O)[C@H](Cc1ccccc1)NC(=O)[C@@H](N)CS [IL32 tripeptide] (H-Cys-Phe-Pro-NH2; C-terminus assumed)	~2 fold

Same assay, conditions: SPR, 4 °C; relative to native RGS5 or IL32 peptide

Molecule	Fold decrease in binding affinity (weaker/higher KD) relative to native 14-residue peptide
H-CAPKVLSDDMKKLK-NH2 (C-terminus assumed) [IL32-F3A]	~8 fold

Target: T3, 2-aminoethanethiol (cysteamine) …
Assay: SPR
Conditions: not given

Molecule	Kd
CKGLAAAPHSCLER [RGS5-L8A]	310 nM
CKGLAALPHACLER [RGS5-S11A]	350 nM
CKGLAALPHSALER [RGS5-C12A]	300 nM
CKGAAALPHSCLER [RGS5-L5A]	220 nM
CKGLAALPHSCLEA [RGS5-R15A]	210 nM
CKGLAALAHSCLER [RGS5-P9A]	250 nM
